Source: paper PMC3439491, “Characterization of an AGAMOUS-like MADS Box Protein, a Probable Constituent of Flowering and Fruit Ripening Regulatory System in Banana”

What was measured:
MA-MADS5 full length (A) [1] = biological target: T1, MA-MADS5 full length (A) (Musa acuminata (AAA group, Cavendish …, UniProt E9NW24 1-243)); assay: EMSA; EMSA with 2 ug recombinant protein or 15 ug nuclear extract, buffer by reference to earlier work; circularization pre-incubation: 60 mM KCl, 8 mM HEPES pH 7.9; details: protein: recombinant, tags: 6xHis (pQE30), chain copies: 2, blunt
T1 sequence (E9NW24 entry or part of it): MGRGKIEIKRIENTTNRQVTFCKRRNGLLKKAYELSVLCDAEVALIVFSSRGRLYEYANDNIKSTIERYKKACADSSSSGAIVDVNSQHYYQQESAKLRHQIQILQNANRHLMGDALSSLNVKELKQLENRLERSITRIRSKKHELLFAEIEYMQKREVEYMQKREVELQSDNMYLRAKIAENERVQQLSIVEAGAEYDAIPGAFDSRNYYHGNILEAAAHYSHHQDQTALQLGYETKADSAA

MA-MADS5 G (C-terminal) = MA-MADS5 G (C-terminal) (Musa acuminata (AAA group, Cavendish …, UniProt E9NW24 184-243)); assay: as above; details: protein: recombinant; tags: 6xHis (pQE30); label: 32P; blunt
Chain of MA-MADS5 G (C-terminal) (Musa acuminata (E9NW24 entry or part of it): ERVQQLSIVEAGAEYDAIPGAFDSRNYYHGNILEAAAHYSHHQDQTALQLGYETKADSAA

MA-MADS5 D (MADS+I+K) = MA-MADS5 D (MADS+I+K) (Musa acuminata (AAA group, Cavendish …, UniProt E9NW24 1-183)); assay: as above; details: protein: recombinant; tags: 6xHis (pQE30); chain copies: 2; label: 32P; blunt
Chain of MA-MADS5 D (MADS+I+K) (Musa acuminata (E9NW24 entry or part of it): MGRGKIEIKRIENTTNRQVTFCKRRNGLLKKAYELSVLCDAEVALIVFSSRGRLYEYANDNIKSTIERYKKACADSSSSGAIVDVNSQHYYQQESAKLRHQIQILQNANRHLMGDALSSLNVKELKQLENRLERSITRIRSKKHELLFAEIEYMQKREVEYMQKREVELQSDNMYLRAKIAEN

MA-MADS5 C (MADS+I) = MA-MADS5 C (MADS+I) (Musa acuminata (AAA group, Cavendish …, UniProt E9NW24 1-73)); assay: as above; details: protein: recombinant; tags: 6xHis (pQE30); chain copies: 2; label: 32P; blunt
Chain of MA-MADS5 C (MADS+I) (Musa acuminata (E9NW24 entry or part of it): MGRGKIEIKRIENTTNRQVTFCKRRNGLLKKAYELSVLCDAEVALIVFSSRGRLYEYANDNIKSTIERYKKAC

MA-MADS5 F (K+C) = MA-MADS5 F (K+C) (Musa acuminata (AAA group, Cavendish …, UniProt E9NW24 74-243)); assay: as above; details: protein: recombinant; tags: 6xHis (pQE30); label: 32P; blunt
Chain of MA-MADS5 F (K+C) (Musa acuminata (E9NW24 entry or part of it): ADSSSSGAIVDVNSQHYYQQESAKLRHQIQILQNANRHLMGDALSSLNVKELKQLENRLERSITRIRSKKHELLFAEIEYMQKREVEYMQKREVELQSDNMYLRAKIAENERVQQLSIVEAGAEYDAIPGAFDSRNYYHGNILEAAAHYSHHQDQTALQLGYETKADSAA

MA-MADS5 E (I+K+C) = MA-MADS5 E (I+K+C) (Musa acuminata (AAA group, Cavendish …, UniProt E9NW24 61-243)); assay: as above; details: protein: recombinant; tags: 6xHis (pQE30); chain copies: 2; label: 32P; blunt
Chain of MA-MADS5 E (I+K+C) (Musa acuminata (E9NW24 entry or part of it): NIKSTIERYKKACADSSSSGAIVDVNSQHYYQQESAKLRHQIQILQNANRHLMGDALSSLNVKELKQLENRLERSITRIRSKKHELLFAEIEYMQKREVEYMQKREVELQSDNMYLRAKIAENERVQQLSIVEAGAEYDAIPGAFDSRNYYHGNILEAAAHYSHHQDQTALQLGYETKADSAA

[2] = biological target: MA-MADS5 full length (A);MA-MADS5 C (MADS+I) (Musa acuminata (AAA group, Cavendish …, UniProt E9NW24;E9NW24 1-243;1-73, |)); assay: EMSA; intermediate-mobility dimer; EMSA with 2 ug recombinant protein or 15 ug nuclear extract, buffer by reference to earlier work; circularization pre-incubation: 60 mM KCl, 8 mM HEPES pH 7.9; details: protein: recombinant;recombinant; tags: 6xHis (pQE30);6xHis (pQE30); copies: 1;1; label: 32P; blunt
[3] = biological target: MA-MADS5 C (MADS+I);MA-MADS5 D (MADS+I+K) (Musa acuminata (AAA group, Cavendish …, UniProt E9NW24;E9NW24 1-73;1-183, |)); assay: as above; details: protein: recombinant;recombinant; tags: 6xHis (pQE30);6xHis (pQE30); copies: 1;1; label: 32P; blunt
[4] = biological target: MA-MADS5 full length (A);MA-MADS5 D (MADS+I+K) (Musa acuminata (AAA group, Cavendish …, UniProt E9NW24;E9NW24 1-243;1-183, |)); assay: as above; details: protein: recombinant;recombinant; tags: 6xHis (pQE30);6xHis (pQE30); copies: 1;1; label: 32P; blunt
MA-MADS5 full length (A) [5] = biological target: T1, MA-MADS5 full length (A); assay: EMSA; supershifted by anti-MA-MADS5; EMSA with 2 ug recombinant protein or 15 ug nuclear extract, buffer by reference to earlier work; circularization pre-incubation: 60 mM KCl, 8 mM HEPES pH 7.9; details: protein: recombinant; tags: 6xHis (pQE30); chain copies: 2; label: 32P 5' end; blunt

B1: AGAMOUS element 1 CArG-box (A probe) (dsDNA)
DNA 1: ACTGAAGCTTTCCATTAATGGGAATGACGCACAATCCCAC
DNA 2: GTGGGATTGTGCGTCATTCCCATTAATGGAAAGCTTCAGT
binding result (MA-MADS5 full length (A) [1]; label: 32P): binds
binding result (MA-MADS5 G (C-terminal)): no binding
binding result (MA-MADS5 D (MADS+I+K)): binds
binding result (MA-MADS5 C (MADS+I)): binds
binding result (MA-MADS5 F (K+C)): no binding
binding result (MA-MADS5 E (I+K+C)): no binding
binding result [2]: binds
binding result [3]: binds
binding result [4]: binds

B2: CArG motif 1 (MA-SPS) (dsDNA)
DNA 1: TTGGATTCTTATATGTCACGAA
DNA 2: TTCGTGACATATAAGAATCCAA
binding result (MA-MADS5 full length (A) [5]): binds

B3: CArG motif 2 (MA-ACS1) (dsDNA)
DNA 1: ACACCCCATAAATTTGATCTTC
DNA 2: GAAGATCAAATTTATGGGGTGT
binding result (MA-MADS5 full length (A) [1]; label: 32P 5' end): binds

B4: CArG motif 3 (MA-ACS1) (dsDNA)
DNA 1: GGGTCAACTATAATTGCCTTCC
DNA 2: GGAAGGCAATTATAGTTGACCC
binding result (MA-MADS5 full length (A) [1]; label: 32P 5' end): no binding

B5: CArG motif 4 (MA-ACS1) (dsDNA)
DNA 1: GATCATGCTTTTATTGTTTCTT
DNA 2: AAGAAACAATAAAAGCATGATC
binding result (MA-MADS5 full length (A) [1]; label: 32P 5' end): no binding

B6: CArG motif 5 (MA-ACO1) (dsDNA)
DNA 1: GAGGTTGGCAATTTGTCACTAC
DNA 2: GTAGTGACAAATTGCCAACCTC
binding result (MA-MADS5 full length (A) [1]; label: 32P 5' end): binds

B7: CArG motif 6 (MA-ACO1) (dsDNA)
DNA 1: GAACGCCTATAAATTGCCTGGT
DNA 2: ACCAGGCAATTTATAGGCGTTC
binding result (MA-MADS5 full length (A) [1]; label: 32P 5' end): no binding

B8: CArG motif 7 (MA-EXP) (dsDNA)
DNA 1: AAGCACGCATATTTGTGCTGCA
DNA 2: TGCAGCACAAATATGCGTGCTT
binding result (MA-MADS5 full length (A) [1]; label: 32P 5' end): binds

B9: CArG motif 8 (MA-LEC) (dsDNA)
DNA 1: CTGGTATCTATTTATGAAATCT
DNA 2: AGATTTCATAAATAGATACCAG
binding result (MA-MADS5 full length (A) [1]; label: 32P 5' end): binds

B10: CArG motif 9 (MA-LEC) (dsDNA)
DNA 1: ATAAATTCTTAAAAGATCCTAG
DNA 2: CTAGGATCTTTTAAGAATTTAT
binding result (MA-MADS5 full length (A) [1]; label: 32P 5' end): no binding

B11: AGAMOUS element m1 (Am probe, CArGm) (dsDNA)
DNA 1: ACTGAAGCTTTCCATGCATGGGAATGACGCACAATCCCAC
DNA 2: GTGGGATTGTGCGTCATTCCCATGCATGGAAAGCTTCAGT
binding result (MA-MADS5 full length (A) [1]; label: 32P or unlabeled): no binding
